The values that follow come from paper PMC9929924, “Phosphorylation of the receptor protein Pex5p modulates import of proteins into peroxisomes” (Biological Chemistry, 2022).

Data set [1] concerns GFP-SKL import in pex5Δ yeast cells. Kind of data set: Fluorescence microscopy, import of GFP-SKL in cells expressing Pex5p variants. It is filed as cell-based, S. cerevisiae. The note with it: pex5Δ cells expressing plasmid-encoded Pex5p variant and GFP-SKL, grown in oleate. On the procedure: Cells expressing distinct Pex5p variants (wildtype, Pex5p^2A or Pex5p^2D) and GFP-SKL were grown overnight in 50 ml YNO medium supplemented with 0.1% (w/v) glucose to an OD600 of 1–1.5. Aliquots of 5.4 ml were taken and formaldehyde was added to a final concentration of 3.7% (v/v). Samples were incubated for 10 min at RT with slight agitation. Cells were collected by centrifugation (5 min at 2000 g), resuspended in 1 ml of 0.1 M potassium phosphate buffer (pH 6.8) containing 3.7% (v/v) formaldehyde and incubated for 1 h at RT with slight agitation. Following centrifugation (30 s at 16,000 g), cells were resuspended in 1 ml of 0.1 M potassium phosphate buffer (pH 6.8) containing 10 mM ethanolamine and incubated for further 10 min at RT. Subsequently, cells were washed twice with phosphate-buffered saline (PBS) and resuspended in 10–20 µl of PBS containing 0.1% (v/v) Triton X-100. Fixed cells were analyzed within 48 h after preparation.
Fluorescence microscopy was performed using a Zeiss Axio Observer.Z1 microscope equipped with an alpha Plan-Aprochromat 100× objective and an AxioCam MR R3. GFP signal was visualized with a 38 HE filterset from Zeiss. Images were processed using Adobe Photoshop CS5 (version 12.0.4 ×64; Adobe Systems Incorporated). To document the structural integrity of cells, bright field images were acquired, adjusted in a way that only the cell boundaries were visible and subsequently added into the blue channel in Photoshop as reported before ([Motley and Hettema 2007]).

The nature of data set [2]: Thermal unfolding by circular dichroism and nano-differential scanning fluorimetry. It is filed as physicochemical. The note with it: circular dichroism thermal ramping (20-70 °C, 220 nm) and nanoDSF (0.35 mg ml^−1, 1 °C min^−1); 25 mM phosphate pH 7.5, 150 mM NaF; triplicates. On the procedure: Thermal unfolding coupled to CD was performed between 20 °C and 70 °C with a measure in triplicate every 5 °C increment. Millidegree values at 220 nm were plotted against their temperature and the melting temperature calculated using a Boltzmann sigmoidal equation.
Melting temperatures were measured by Nano differential scanning fluorimetry using a Prometheus NT.48 (Nanotemper). Tryptophan intrinsic fluorescence emission was recorded at 330 and 350 nm with 30% excitation power during thermal ramping from 20 to 90 °C (1 °C min^−1). 10 μl of proteins in 25 mM phosphate buffer (pH 7.5), 150 mM NaF and at a concentration of 0.35 mg ml^−1 were loaded in nanoDSF grade standard capillaries. Samples were measured in triplicates and the calculated melting temperatures averaged. Melting temperature were calculated by the software PR.ThermControl.
(Circular dichroism is the unequal absorption of left and right circularly polarised light.)

Data set [3] is described as follows: Native MS of purified individual proteins (oligomeric state). The format is physicochemical. The following applies: Pex5p 7.5 µM, Pcs60p 5 µM; 200 mM ammonium acetate pH 6.8. The method, then:
Recombinantly expressed Pex5p variants and Pcs60p protein solutions were buffer-exchanged into 200 mM ammonium acetate pH 6.8 at 4 °C using microcentrifuge gel filtration columns Bio-Spin 6 (Bio-Rad Laboratories). Protein concentration was determined spectrophotometrically using a Nanodrop 2000c (Thermo Scientific) by measuring absorption at 280 nm. Proteins were either analyzed individually or as mixture of Pex5p variant with Pcs60p at indicated concentrations to study receptor-cargo complex formation. For this, Pex5p^WT or Pex5p^2D mutant was incubated with Pcs60p for 5 min on ice. Spectra were obtained using a Synapt HDMS (Waters and MS Vision) equipped with an m/z 32,000 range quadrupole by introducing 3 µl sample with an in-house manufactured gold-coated capillary needle (Brosilicate Thin Wall with Filament Clark Capillary Glass, OD 1.0 mm, ID 0.78 mm; Harvard Apparatus). […]
Spectra were calibrated externally using cesium iodide. […] Quantification of complex abundances was performed based on area under signals using a similar approach as previously described ([Danquah et al. 2019]; [Yefremova et al. 2017]). To compare stabilities of receptor-cargo complexes for Pex5p^WT and Pex5p^2D the collisional activation was quantified by calculating center-of-mass energies (E com) based on the abundance-weighted mean charge states of the 1:1 complex for each acceleration voltage. […]

B1: Pex5p^WT: Pex5p wildtype, PTS1 receptor of S. cerevisiae (protein)
chain: MDVGSCSVGNNPLAQLHKHTQQNKSLQFNQKNNGRLNESPLQGTNKPGISEAFISNVNAISQENMANMQRFINGEPLIDDKRRMEIGPSSGRLPPFSNVHSLQTSANPTQIKGVNDISHWSQEFQGSNSIQNRNADTGNSEKAWQRGSTTASSRFQYPNTMMNNYAYASMNSLSGSRLQSPAFMNQQQSGRSKEGVNEQEQQPWTDQFEKLEKEVSENLDINDEIEKEENVSEVEQNKPETVEKEEGVYGDQYQSDFQEVWDSIHKDAEEVLPSELVNDDLNLGEDYLKYLGGRVNGNIEYAFQSNNEYFNNPNAYKIGCLLMENGAKLSEAALAFEAAVKEKPDHVDAWLRLGLVQTQNEKELNGISALEECLKLDPKNLEAMKTLAISYINEGYDMSAFTMLDKWAETKYPEIWSRIKQQDDKFQKEKGFTHIDMNAHITKQFLQLANNLSTIDPEIQLCLGLLFYTKDDFDKTIDCFESALRVNPNDELMWNRLGASLANSNRSEEAIQAYHRALQLKPSFVRARYNLAVSSMNIGCFKEAAGYLLSVLSMHEVNTNNKKGDVGSLLNTYNDTVIETLKRVFIAMNRDDLLQEVKPGMDLKRFKGEFSF
modifications: left off: His6, N-terminal, state not stated
notes: Pex5p wildtype, PTS1 receptor of S. cerevisiae
As for B1, the “subcellular distribution of GFP-SKL” value in data set [1] is “import of GFP-SKL is restored”; in data set [1] (listed as Pex5p^2A), “no import phenotype”; in data set [1] (listed as Pex5p^2D) it was “both a punctate staining and diffuse cytosolic fluorescence, suggesting a reduced import of GFP-SKL into peroxisomes”. The melting temperature result in data set [2] was “approximately 46 °C”. Also, in data set [3], the “oligomeric state in native MS” value is on record as “mainly detected in a monomeric state”.
